From publication PMC7894019

Target: ZNF191 (purified recombinant) (UniProt P17028 1-368)
Experiment: EMSA

ZNF191 (purified recombinant), sequence (P17028 whole entry): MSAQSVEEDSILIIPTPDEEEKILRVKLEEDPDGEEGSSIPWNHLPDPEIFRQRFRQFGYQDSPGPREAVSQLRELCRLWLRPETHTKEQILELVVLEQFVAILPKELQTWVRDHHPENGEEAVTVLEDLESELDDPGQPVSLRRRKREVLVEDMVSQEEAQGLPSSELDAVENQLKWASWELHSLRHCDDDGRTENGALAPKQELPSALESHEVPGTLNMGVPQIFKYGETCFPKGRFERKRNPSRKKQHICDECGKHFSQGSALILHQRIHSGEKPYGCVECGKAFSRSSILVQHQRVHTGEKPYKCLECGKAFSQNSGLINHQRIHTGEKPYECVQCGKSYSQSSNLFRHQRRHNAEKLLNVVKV

Binder	binding result
WNT8BP(nt-1491) (dsDNA) DNA 1: GTGAATTTGTGTATTAATTCTTTATTTTCT DNA 2: AGAAAATAAAGAATTAATACACAAATTCAC	binds
WNT8BP(nt-1178) (dsDNA) DNA 1: GATTATCATGCATTCATTGTATGCCTGTAT DNA 2: ATACAGGCATACAATGAATGCATGATAATC	binds
